Laboratory results taken from patent US20110002927A1 (DELENEX THERAPEUTICS, published 2011).

What was measured:
[1] = target: T1, recombinant human TNF-alpha (rhTNF-α) (human, UniProt P01375 77-233); test: cell-based or functional assay
[2] = target: T1, recombinant human TNF-alpha (rhTNF-α); test: method not stated (data not shown)

T1 sequence (P01375 77-233 limits assumed): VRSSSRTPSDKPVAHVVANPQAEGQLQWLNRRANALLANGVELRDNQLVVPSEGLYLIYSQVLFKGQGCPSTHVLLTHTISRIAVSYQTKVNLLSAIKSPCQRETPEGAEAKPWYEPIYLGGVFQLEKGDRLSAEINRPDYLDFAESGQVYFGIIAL

Kd [2]: 2.19 nM | koff [2]: 0.0126 s⁻¹ | kon [2]: 5.72e+06 M⁻¹ s⁻¹
B1: ESBA105 (scFv)
scFv: DIVMTQSPSSLSASVGDRVTLTCTASQSVSNDVVWYQQRPGKAPKLLIYSAFNRYTGVPSRFSGRGYGTDFTLTISSLQPEDVAVYYCQQDYNSPRTFGQGTKLEVKRGGGGSGGGGSGGGGSSGGGSQVQLVQSGAEVKKPGASVKVSCTASGYTFTHYGMNWVRQAPGKGLEWMGWINTYTGEPTYADKFKDRFTFSLETSASTVYMELTSLTSDDTAVYYCARERGDAMDYWGQGTLVTVSS
notes: expressed in and purified from E. coli; 26 kDa; also called E105; anti-TNFalpha single-chain antibody (scFv) ESBA105
EC50 in the L929 TNF-α assay (rescue of actinomycin D sensitized mouse L929 fibroblasts from rhTNF-α induced apoptosis, XTT) [1]: 0.0125 µg/mL
